# Experimental data published in patent US20260284241A1, “DOSAGE REGIMEN FOR SHORT-LIVED RADIOISOTOPE” (AdvanCell Pty Limited, priority 2023, published 2026).
# System: metastatic castration-resistant prostate cancer
# Assay: 212Pb SPECT/CT imaging (biodistribution) in a patient with metastatic castration-resistant prostate cancer
# Assay type: in vivo, human
# Details: 60 MBq
# Description: To gauge the biodistribution and inform patient tolerability of a ^212Pb radiopharmaceutical comprising an acetamide-based chelator, 60 MBq of ^212Pb-ADVC001 was administered to a person with metastatic castration-resistant prostate cancer. SPECT/CT imaging was performed at 1.5, 5, 20, and 28 h following infusion. […] FIG. 3B depicts sagittal and coronal images at 1.5 h after injection (p.i.). Further details are published in Griffths et al., Journal of Nuclear Medicine, 2024, 65 (7), the entire contents of which are hereby incorporated herein by reference.
substance,measurement,setting,value
HO-Glu-CO-Lys[SubA-D-Lys-D-Phe-D-Tyr(3I)-(Pent-^212Pb-DO3AM)]-OH [^212Pb-ADVC001],kidney clearance,"patient with mCRPC, SPECT/CT (FIG. 3A)",rapid kidney clearance
same,tumour uptake on 212Pb SPECT/CT images,"person with mCRPC, SPECT/CT at 1.5, 5, 20 and 28 h following infusion",rapid tumour uptake
